Experimental data reported in the RNAGym collection of RNA variant scans (doi:10.7554/elife.80360).

B1: Hairpin Ribozyme (parent)
chain: GUCCUCUUUCACGUGCGCGUGAAAGAGAGAAGUGAACCAGAGAAACACACGUUGUGGUAUAUUACCUGGUA

Variants of: B1
Test: self-cleavage, relative activity (ratio to wild type); higher = more cleavage; co-transcriptional

Q: Which self-cleavage does the source give for U20A C46U here?
A: Its self-cleavage is 0.183.

Q: For G19C G32C, which self-cleavage is on record?
A: Its self-cleavage is 0.0926.

Q: For C18U C66G, which self-cleavage is on record?
A: The self-cleavage was 0.202.

Q: Which self-cleavage does the source give for C18G U62G here?
A: The self-cleavage was 0.163.

Q: For G19A C38G, which self-cleavage is on record?
A: Its self-cleavage is 0.159.

Q: For G19U A41U, which self-cleavage is on record?
A: The self-cleavage was 1.24.

Q: With C18G U58C as the variant, how does the self-cleavage read?
A: Its self-cleavage is 0.802.

Q: With G19A U70G as the variant, how does the self-cleavage read?
A: The self-cleavage was 0.917.

Q: With G19C A39G as the variant, how does the self-cleavage read?
A: Its self-cleavage is 0.28.

Q: Which self-cleavage does the source give for C18A C46U here?
A: The self-cleavage was 0.1.

Q: With U20A C65G as the variant, how does the self-cleavage read?
A: Its self-cleavage is 0.182.

Q: Which self-cleavage does the source give for U20A C65A here?
A: The self-cleavage was 0.857.

Q: For G19U A47U, which self-cleavage is on record?
A: The self-cleavage was 0.211.

Q: For C18A U33G, which self-cleavage is on record?
A: The self-cleavage was 0.15.

Q: Which self-cleavage does the source give for C18A U33C here?
A: The self-cleavage was 0.132.

Q: With C18A U33A as the variant, how does the self-cleavage read?
A: The self-cleavage was 0.115.

Q: For G19C G21C, which self-cleavage is on record?
A: The self-cleavage was 0.493.

Q: For G19U C46G, which self-cleavage is on record?
A: The self-cleavage was 0.157.

Q: For G19U C46A, which self-cleavage is on record?
A: The self-cleavage was 0.17.

Q: Which self-cleavage does the source give for C18A C50U here?
A: The self-cleavage was 0.428.

Q: With C18A C50A as the variant, how does the self-cleavage read?
A: The self-cleavage was 0.314.

Q: Which self-cleavage does the source give for C18A G21U here?
A: Its self-cleavage is 0.669.

Q: With C18U G19A as the variant, how does the self-cleavage read?
A: The self-cleavage was 1.08.

Q: Which self-cleavage does the source give for G19C U63A here?
A: The self-cleavage was 0.107.

Q: For G19C U63C, which self-cleavage is on record?
A: Its self-cleavage is 0.168.

Q: Which self-cleavage does the source give for G19C U63G here?
A: The self-cleavage was 0.123.

Q: With G19C G27A as the variant, how does the self-cleavage read?
A: The self-cleavage was 0.361.

Q: For G19C G27C, which self-cleavage is on record?
A: Its self-cleavage is 0.133.

Q: With G19C G27U as the variant, how does the self-cleavage read?
A: The self-cleavage was 0.27.

Q: With G19A U62C as the variant, how does the self-cleavage read?
A: Its self-cleavage is 0.278.

Q: Which self-cleavage does the source give for C18U A61U here?
A: Its self-cleavage is 0.22.

Q: With C18U A61C as the variant, how does the self-cleavage read?
A: The self-cleavage was 0.17.

Q: For G19C A43C, which self-cleavage is on record?
A: The self-cleavage was 0.11.

Q: Which self-cleavage does the source give for U20A A24C here?
A: Its self-cleavage is 0.81.

Q: Which self-cleavage does the source give for G19C A41U here?
A: Its self-cleavage is 1.11.

Q: Which self-cleavage does the source give for G19C A41C here?
A: The self-cleavage was 1.24.

Q: Which self-cleavage does the source give for G19A U67A here?
A: The self-cleavage was 0.264.

Q: Which self-cleavage does the source give for G19A C50U here?
A: The self-cleavage was 0.401.

Q: For G19A C50G, which self-cleavage is on record?
A: The self-cleavage was 0.247.

Q: For G19A G29A, which self-cleavage is on record?
A: Its self-cleavage is 0.173.

Q: For G19A G29C, which self-cleavage is on record?
A: The self-cleavage was 0.184.

Q: For U20A A30G, which self-cleavage is on record?
A: The self-cleavage was 0.184.

Q: With G19A G68A as the variant, how does the self-cleavage read?
A: Its self-cleavage is 0.265.

Q: Which self-cleavage does the source give for G19A G68C here?
A: The self-cleavage was 0.194.

Q: Which self-cleavage does the source give for C18A G29U here?
A: Its self-cleavage is 0.198.

Q: With G19U U52A as the variant, how does the self-cleavage read?
A: Its self-cleavage is 0.881.

Q: With G19U U52C as the variant, how does the self-cleavage read?
A: The self-cleavage was 0.818.

Q: With C18A U55C as the variant, how does the self-cleavage read?
A: The self-cleavage was 0.3.

Q: With C18A G32A as the variant, how does the self-cleavage read?
A: Its self-cleavage is 0.169.

Q: For G19U A39C, which self-cleavage is on record?
A: Its self-cleavage is 0.502.

Q: Which self-cleavage does the source give for G19U A39U here?
A: Its self-cleavage is 0.324.

Q: With G19C A64G as the variant, how does the self-cleavage read?
A: Its self-cleavage is 0.545.

Q: With G19U U33C as the variant, how does the self-cleavage read?
A: The self-cleavage was 0.202.

Q: Which self-cleavage does the source give for G19U U33G here?
A: The self-cleavage was 0.117.

Q: Which self-cleavage does the source give for G19U U33A here?
A: The self-cleavage was 0.237.

Q: Which self-cleavage does the source give for G19C A22U here?
A: Its self-cleavage is 0.487.

Q: Which self-cleavage does the source give for C18U A26U here?
A: Its self-cleavage is 0.59.

Q: With C18U A26G as the variant, how does the self-cleavage read?
A: Its self-cleavage is 0.975.

Q: Which self-cleavage does the source give for G19C U33G here?
A: Its self-cleavage is 0.0947.

Q: For C18G G27C, which self-cleavage is on record?
A: Its self-cleavage is 0.0884.

Q: With G19C A23G as the variant, how does the self-cleavage read?
A: Its self-cleavage is 0.611.

Q: With G19U U58C as the variant, how does the self-cleavage read?
A: Its self-cleavage is 0.994.

Q: For G19U U58G, which self-cleavage is on record?
A: Its self-cleavage is 0.672.

Q: Which self-cleavage does the source give for C18U U53G here?
A: Its self-cleavage is 0.644.

Q: Which self-cleavage does the source give for C18U U53A here?
A: Its self-cleavage is 1.

Q: With G19U A24C as the variant, how does the self-cleavage read?
A: The self-cleavage was 0.79.

Q: With C18G C65G as the variant, how does the self-cleavage read?
A: The self-cleavage was 0.212.

Q: For G19C U67C, which self-cleavage is on record?
A: The self-cleavage was 0.176.

Q: Which self-cleavage does the source give for G19A U52G here?
A: The self-cleavage was 0.735.

Q: For U20A A23U, which self-cleavage is on record?
A: Its self-cleavage is 0.785.

Q: With U20A A23G as the variant, how does the self-cleavage read?
A: The self-cleavage was 0.783.

Q: Which self-cleavage does the source give for U20A G21C here?
A: Its self-cleavage is 0.691.

Q: With C18G A28U as the variant, how does the self-cleavage read?
A: The self-cleavage was 0.5.

Q: Which self-cleavage does the source give for C18A G42C here?
A: The self-cleavage was 0.35.

Q: Which self-cleavage does the source give for C18A G42U here?
A: Its self-cleavage is 0.369.

Q: With C18G A22C as the variant, how does the self-cleavage read?
A: Its self-cleavage is 0.79.

Q: Which self-cleavage does the source give for C18G A22G here?
A: Its self-cleavage is 0.804.

Q: With C18G A23U as the variant, how does the self-cleavage read?
A: Its self-cleavage is 0.752.

Q: For C18G A23G, which self-cleavage is on record?
A: The self-cleavage was 0.84.

Q: With G19A A47U as the variant, how does the self-cleavage read?
A: Its self-cleavage is 0.144.

Q: With G19C G34A as the variant, how does the self-cleavage read?
A: The self-cleavage was 1.08.

Q: For C18U U52A, which self-cleavage is on record?
A: Its self-cleavage is 1.09.

Q: Which self-cleavage does the source give for U20A A49G here?
A: Its self-cleavage is 0.437.

Q: Which self-cleavage does the source give for C18G U20A here?
A: The self-cleavage was 0.772.
